Patent publication US12012446B2, “Epstein-Barr virus antibodies and uses thereof” (priority 2017, dated 2024)

Tests used:
[1] = target: T1, purified EBV gp350/220 (recombinant EBV gp350 ectodomain) (Epstein-Barr virus, UniProt P03200); assay: Indirect ELISA on recombinant EBV gp350 ectodomain; assay type: binding
T1 construct: purified EBV gp350 ectodomain protein (AA 4-863); purchased Immune Technology Corporation
Method: Briefly, immunoplates (Costar 3590; Corning Incorporated) were coated with 50 μl of 0.5 μg/ml recombinant EBV gp350 ectodomain (Immune Technology Corporation) diluted in 1× phosphate buffered saline (PBS, pH 7.4) and incubated overnight at 4° C. After washing three times with 1×PBS containing 0.05% (v/v) Tween 20 (washing buffer), plates were blocked with 100 μl washing buffer containing 2% (w/v) bovine serum albumin (BSA) (blocking buffer) then incubated for 1 h at room temperature and washed as above. 100 μl of hybridoma supernatant or 50 μl of 10 μg/ml purified mAbs was added to each well (in triplicate) and incubated for 2 h at room temperature. […] The plates were washed as described above, followed by incubation with 50 μl of goat anti-mouse IgG HRP-conjugated secondary antibody (1:2,000 diluted in 1×PBS) at room temperature for 1 h. The plates were washed again and 100 μl of chromogenic substrate 2,2′-azino-bis (3-ethylbenzothiazoline-6-sulphonic acid) (ABTS, Life Science Technologies) was added. The reaction was stopped using 100 μl of ABTS peroxidase stop solution containing 5% sodium dodecyl sulfate (SDS) in water. The absorbance was read at an optical density of 405 nm using an ELISA reader (Molecular Devices). All experiments were performed in triplicate and confirmed in three independent experiments.
ELISA binding of anti-gp350 and anti-gH/gL to soluble gp350 and gH/gL proteins was performed. Soluble EBV gp350 and gH/gL proteins were used as the target antigen at 0.5 μg/ml. 1× phosphate buffered saline (PBS) was used as negative (not shown) control. Bound antibodies were detected using HRP-conjugated anti-mouse or anti-human IgG (1:2,000).

[2] = target: T2, gp350 protein on gp350 expressing CHO cells (Epstein-Barr virus, UniProt P03200); assay: Flow cytometry of CHO cells stably expressing EBV gp350; assay type: binding; settings: for type of gp350 epitope recognized (linear / conformational): concluded from flow cytometry and immunoblot
T2 construct: stably co-transfected with full-length pCAGGS-gp350/220 and pCI-puro vector; expressed in transfected cells; host or cells: CHO cells
Method: To assess the ability of purified anti-gp350 mAb to detect surface expression of EBV gp350 protein by flow cytometry, CHO cells that stably express EBV gp350 were harvested and stained with purified anti-gp350 (10 μg/ml), followed by AF488 goat anti-mouse IgG secondary antibody. Flow cytometric analysis was performed on a C-6 FC (BD Biosciences) and data was analyzed using FlowJo Cytometry Analysis software (FlowJo, LLC) as described (47). All the experiments were independently repeated three times.
These novel antibodies were analyzed by flow cytometric analysis for surface expression of gp350 protein on 10^6 CHO cells transfected with 1 μg of pCAGGS-gp350. gp350 expressing cells were resuspended in PBS, stained with anti-gp350 mAb, which detects the gp350 ED, followed by secondary Ab goat anti-mouse conjugated to AF488. Additionally, western blot analysis was conducted on untransfected and pCAGGS-gp350 transfected CHO lysate. Anti-gp350 mAb 72A1 was used as a positive control (1:100) and anti-gp350 hybridoma clone supernatants were used at 1:50, and anti-mouse secondary antibody was used at 1:2000.
Flow cytometric analysis of gp350 and gH/gL specificity was performed. CHO wild type cells and gp350 or gH/gL-expressing CHO cells were stained with primary antibodies, followed by secondary goat anti-mouse or anti-human conjugated to AF488. Unstained cells and cells stained with secondary goat anti-mouse or anti-human conjugated to AF488 alone, were used as negative controls.

goat anti-mouse IgG = assay: ELISA for reactivity to anti-mouse IgG (HAMA testing); assay type: binding; settings: 10 μg/ml antibody on gp350-coated plates
From the text: ClustalW alignment of heavy chain (i) and light chain (ii) variable region amino acid sequences. Murine 72A1 heavy chain and light chain AA sequences are represented by SEQ ID NOs: 178 and 179, respectively, and humanized 72A1 heavy chain and light chain AA sequences are represented by SEQ ID NOs: 180 and 181, respectively. Regions of identical sequence are represented by *. Regions of similarity are represented by :. […] FIG. 4C: ELISA determining the reactivity of humanized 72A1 to murine IgG. Soluble EBV gp350 protein was used as the target antigen at 0.5 μg/ml. […] Bound antibodies were detected using HRP-conjugated anti-mouse IgG or anti-human IgG (1:2,000). […] Unstained cells and cells stained with secondary goat anti-mouse or anti-human conjugated to AF488 alone were used as negative controls.
ELISA was performed to determine the reactivity of chimeric and humanized antibodies to murine IgG. Soluble EBV gp350 or gH/gL protein was used as the target antigen at 0.5 μg/ml. […] Bound antibodies were detected using HRP-conjugated anti-mouse IgG or anti-human IgG (1:2,000). […] To determine whether chimeric and humanized anti-gp350 retained the ability to recognize linear epitopes on gp350, lysate from CHO WT cells and CHO cell stably expressing gp350 were analyzed by western blot analysis.

EBV = settings: SCID mice with PBMC from EBV-naïve donors; cited from earlier work

T1 sequence (P03200 4-863): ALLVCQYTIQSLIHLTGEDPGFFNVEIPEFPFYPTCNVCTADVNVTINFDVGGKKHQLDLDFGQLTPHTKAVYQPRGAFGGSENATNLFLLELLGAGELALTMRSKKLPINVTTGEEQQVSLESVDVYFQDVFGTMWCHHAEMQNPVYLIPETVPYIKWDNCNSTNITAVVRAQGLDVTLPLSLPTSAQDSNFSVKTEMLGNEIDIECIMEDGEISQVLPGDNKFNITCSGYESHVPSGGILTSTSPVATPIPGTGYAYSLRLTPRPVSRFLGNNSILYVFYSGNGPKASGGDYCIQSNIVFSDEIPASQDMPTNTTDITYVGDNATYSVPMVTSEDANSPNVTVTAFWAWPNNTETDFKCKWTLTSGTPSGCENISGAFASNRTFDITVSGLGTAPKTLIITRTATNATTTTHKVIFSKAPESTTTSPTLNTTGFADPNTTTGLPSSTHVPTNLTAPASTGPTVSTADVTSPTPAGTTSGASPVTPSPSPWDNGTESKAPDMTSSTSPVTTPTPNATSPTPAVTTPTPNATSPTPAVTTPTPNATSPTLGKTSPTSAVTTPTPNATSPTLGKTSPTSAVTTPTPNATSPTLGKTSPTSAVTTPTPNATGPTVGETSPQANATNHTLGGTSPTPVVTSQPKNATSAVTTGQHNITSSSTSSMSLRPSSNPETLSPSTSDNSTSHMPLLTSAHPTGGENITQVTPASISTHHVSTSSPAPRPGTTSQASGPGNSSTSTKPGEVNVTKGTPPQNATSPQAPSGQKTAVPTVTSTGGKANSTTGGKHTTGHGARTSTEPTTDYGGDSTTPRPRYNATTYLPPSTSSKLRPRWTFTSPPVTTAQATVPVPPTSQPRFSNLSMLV
T2 sequence (P03200 whole entry): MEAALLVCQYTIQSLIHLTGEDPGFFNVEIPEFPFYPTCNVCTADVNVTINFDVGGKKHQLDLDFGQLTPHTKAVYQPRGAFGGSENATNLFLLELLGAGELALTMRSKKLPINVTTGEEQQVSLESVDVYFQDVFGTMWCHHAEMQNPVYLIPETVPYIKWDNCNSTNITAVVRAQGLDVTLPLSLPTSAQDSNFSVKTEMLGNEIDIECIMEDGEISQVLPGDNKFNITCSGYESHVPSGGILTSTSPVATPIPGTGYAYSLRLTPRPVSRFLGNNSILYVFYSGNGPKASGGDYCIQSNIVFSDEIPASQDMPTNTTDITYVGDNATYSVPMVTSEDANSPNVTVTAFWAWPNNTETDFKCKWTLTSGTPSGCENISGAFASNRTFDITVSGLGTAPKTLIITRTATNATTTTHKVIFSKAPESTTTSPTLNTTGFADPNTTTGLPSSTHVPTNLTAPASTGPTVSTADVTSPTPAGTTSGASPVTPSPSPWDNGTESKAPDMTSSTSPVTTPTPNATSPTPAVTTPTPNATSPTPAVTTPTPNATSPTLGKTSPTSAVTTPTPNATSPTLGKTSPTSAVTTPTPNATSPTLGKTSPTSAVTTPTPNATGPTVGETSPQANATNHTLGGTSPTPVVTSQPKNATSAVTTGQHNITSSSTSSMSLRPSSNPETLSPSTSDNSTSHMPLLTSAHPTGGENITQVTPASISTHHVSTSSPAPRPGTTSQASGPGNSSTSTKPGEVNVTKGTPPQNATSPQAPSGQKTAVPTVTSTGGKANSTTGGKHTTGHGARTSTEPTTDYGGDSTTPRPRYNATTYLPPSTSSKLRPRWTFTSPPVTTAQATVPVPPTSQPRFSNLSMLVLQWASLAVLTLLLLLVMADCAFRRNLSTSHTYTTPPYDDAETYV

| Molecule | ELISA binding to purified EBV gp350/220 ([1]; purified antibodies 10 μg/ml) | ELISA binding strength to gp350, compared with m72A1 / parental antibody ([1]; soluble gp350 0.5 μg/ml) | type of gp350 epitope recognized (linear / conformational) [2] | ELISA signal relative to negative control 54A1 ([1]; purified antibodies 10 μg/ml) | reactivity to goat anti-mouse IgG above the background (1×PBS) (goat anti-mouse IgG) | reactivity to goat-anti-mouse IgG as compared to goat anti-human IgG (goat anti-mouse IgG) | protection against EBV and development of EBV+ tumors or PTLD-like lesions (EBV) | Flow cytometry (CHO Cells) ([2]; CHO cells stably expressing gp350 on the surface, native/conformational epitopes) |
| --- | --- | --- | --- | --- | --- | --- | --- | --- |
| HB5: murine anti-EBV gp350 mAb, IgG2a κ; SEQ ID NO: 108 / 109; neutralizing (antibody, V domains shown, heavy chain mAb HB5; light chain mAb HB5, murine anti-EBV gp350 mAb, IgG2a κ; neutralizing) VH: AELVRPGASVKISCKAFGYTFTNHNINWVKQRPGQGLDWIGYINPYNDYTSYNQKFKGKATLTVDKSSNTAYMELSSLTSEDSAVYYCARSEGWLRRGAWFAYWGQGTLVTVSAAKTTAPSVYPLAPVCGDTTGSSVTLG VL: AILSVSPGERVSFSCRASQSIGTSIHWYQQRTNDSPRLLIKYASESISGIPPRFSGSGSGTDFTLSINSVESEDIADYHCQQSNSWPMLTFGAGTKLELKRADAAPTV | + | equal to or greater than that of the positive control, m72A1 | recognized both linear and conformational epitopes |  |  |  |  |  |
| m72A1: EBV anti-gp350 neutralizing mouse antibody purified from HB168 hybridoma (ATCC); SEQ ID NO: 100 / 101 (antibody, V domains shown, heavy chain mAb 72A1; light chain mAb 72A1) VH: PELVKPGTSMKISCKASGSSFTDYTMNWMKQSHGKNLEWIGLINPYNGGTRYNQKFKGKATLTLDKSSSTAYMEVLSLTSEDSAVYYCAGGLRRVNWFAYWGQGTLVSVSAAKTTPPSVYPLAPGSAAQTNSMVTLG VL: QAVLTQESALTTSPGETVTLTCRSSTGAVTTSNYANWVQEKPDHLFTGLIGGTNNRVPGVPARFSGSLIGDKAALTITGAQTEDEAIYFCVLWHSNHWVFGGGTKLTVL | + |  |  | greater than two times those of anti-KSHV gH/gL mAb 54A1 | 28 fold | 9 fold | completely protected |  |
| h72A1: humanized 72A1 IgG1; heavy and light chain SEQ ID NOs: 180 and 181 (antibody, V domains shown) VH: EVQLVESGGGLVQPGGSLRLSCAASGSSFTDYTMNWMRQSPGKGLEWIGLINPYNGGTRYADSVKGRATLSLDKSKNTAYLQMNSLRAEDTAIYYCAGGLRRVNWFAYWGQGTLVTVSS VL: DAQLTQSPILLSASVGDRVTITCRSSTGAVTTSNYANWVQERTNGSFRGLIGGTNNRVPGVPSRFSGSLSGDDATLTISSLQPEDEADYFCVLWHSNHWVFGAGTKVEIKR |  |  |  |  | did not react at all |  |  | recognized native epitopes of gp350 expressed on CHO cells surface, comparable to m72A1 |
| HB11: murine anti-EBV gp350 mAb, IgG1 κ; SEQ ID NO: 120 / 121; neutralizing (antibody, V domains shown, heavy chain mAb HB11; light chain mAb HB11, murine anti-EBV gp350 mAb, IgG1 κ; neutralizing) VH: PSLVKPSQTLSLTCSVTGDSITSGFWNWIRKFPGNKLEYMGYISYSGSTYYNPSLKSRISITRDTSKNQYYLQLNSVTTEDTATYYCARGNGGNYDWYFDVWGAGTTVTVSSAKTTPPSVYPLAPGSAAQTNSMVTLG VL: AIMSASLGEKVTMSCRASSSVNFMNWYQQKSDDSPKLLIYYISNLAPGVPARFSGSGSGNSYSLTISGMEGEDAATYYCQQFTSSPSWTFGGGTKLEIKRADAAPTV | + |  | recognized both linear and conformational epitopes |  |  |  |  |  |
| HB20: murine anti-EBV gp350 mAb, IgG2a κ; SEQ ID NO: 128 / 129; neutralizing (antibody, V domains shown, heavy chain mAb HB20; light chain mAb HB20, murine anti-EBV gp350 mAb, IgG2a κ; neutralizing) VH: ELVKPGASVKLSCKASGYTFTSYWIQWVKQRPGQGLEWIGEINPTNGHTNYNEKFKTKATLTVDKSSSTAYMRLSSLTSEDSAVYYCARNLYYYGRPDYWGQGTSVTVSSAKTTAPSVYPLAPVCGDTTGSSVTLG VL: SSLSASLGDRVTISCRASQDIGNYLNWYQQKPDGTVKLLIYYTSRLHSGVPSRFSGSGSGTDYSLTISNLEQEDIATYFCQQGNALPPTFGGGTKLEIKRADAAPTV | + |  | only recognized conformational epitopes |  |  |  |  |  |
